Measurements: US20260242478A1 (published 2026)
Where no end group is shown, it is not given here.

B1: Phage-2298 (peptide)
peptide: WENWCTPEWMCNGF
modifications: cysteine pairing not given here; also: displayed on bacteriophage by fusion to pIII
B2: Phage-2303 (peptide)
peptide: LTKWCIPEWMCAVE
modifications: cysteine pairing not given here; also: displayed on bacteriophage by fusion to pIII
B3: Phage-2283 (peptide)
peptide: GGKWCKPSWMCFGM
notes: tested as crude clonal phage supernatant
B4: Phage-2284 (peptide)
peptide: MINWCTPAWMCTGF
notes: as for B3
B5: Phage-2285 (peptide)
peptide: EPKWCIPQWMCERF
notes: as for B3
B6: Phage-2286 (peptide)
peptide: AEKWCIPPWMCVND
notes: as for B3
B7: Phage-2287 (peptide)
peptide: VEKWCTPRWMCEGF
notes: as for B3
B8: Phage-2288 (peptide)
peptide: HVKWCTPAWMCVSN
notes: as for B3
B9: Phage-2289 (peptide)
peptide: ELNWCTPPWMCNPM
notes: as for B3
B10: Phage-2290 (peptide)
peptide: VDKQCRPAWMCEIW
notes: as for B3
B11: Phage-2291 (peptide)
peptide: VEKWCIPAWMCQQS
notes: as for B3
B12: Phage-2292 (peptide)
peptide: NSNWCIPSWMCADI
modifications: cysteine pairing not given here; also: displayed on bacteriophage by fusion to pIII
notes: as for B3
B13: Phage-2293 (peptide)
peptide: VEKWCIPPWMCVNS
notes: as for B3
B14: Phage-2294 (peptide)
peptide: IHMLCSPPWMCVGL
notes: as for B3
B15: Phage-2295 (peptide)
peptide: DVMWCIPPWMCEHR
notes: as for B3
B16: Phage-2296 (peptide)
peptide: NVKWCTPPWMCFLD
notes: as for B3
B17: Phage-2297 (peptide)
peptide: THKWCIPVWMCEHQ
notes: as for B3
B18: Phage-2329 (peptide)
peptide: PEKWCIPPWMCTNF
modifications: cysteine pairing not given here; also: displayed on bacteriophage by fusion to pIII

molecular target: Anti-PSMA Fab (006 PSMA Fab); test: clonal phage ELISA on biotinylated PSMA Fab captured on neutravidin; bound phage detected with anti-M13-HRP; no PSMA antigen
Method: (§1) Clonal phage were harvested as crude supernatants and screened via standard ELISAs. […] Prior to the addition of clonal phage. wells were incubated with blocking buffer and PSMA antigen or blocking buffer alone. Without washing or aspirating, clonal phage supernatants were then added to the wells and incubated for a short time. Wells were then washed followed by detection of bound phage using a horse radish conjugated anti-M13 antibody.

Row | Binder | Phage binding ELISA signal, Anti-PSMA Fab
1 | B1 | 1.49
2 | MDNWCTPPWMCHGF [Phage-2299] | 1.49
3 | WVQWCIPPWMCEPS [Phage-2300] | 1.49
4 | SMKWCTPAWMCERL [Phage-2301] | 1.49
5 | FANWCTPSWMCNFT [Phage-2302] | 1.48
6 | B2 | 1.48
7 | VQNWCIPAWMCEGK [Phage-2304] | 1.48
8 | EAKWCTPPWMCMSM [Phage-2305] | 1.48
9 | QNTWCIPPWMCEVF [Phage-2306] | 1.48
10 | YDRLCIPMWMCSSV [Phage-2307] | 1.48
11 | EWKWCTPPWMCQYE [Phage-2308] | 1.48
12 | IEKWCIPLWMCEMQ [Phage-2309] | 1.48
13 | MEIWCKPAWMCEST [Phage-2310] | 1.48
14 | PEKWCIPDWMCTVY [Phage-2311] | 1.48
15 | EFKMCIPQWMCQHQ [Phage-2312] | 1.47

molecular target: T1, Anti-PSMA Fab (SEQ ID NOs: 19, 20); test: phage binding ELISA; plate-captured PSMA Fab pre-incubated with PSMA antigen as competitor, anti-M13 HRP detection
T1 construct: Biotinylated and captured on neutravidin coated plates in the phage ELISA; also called 006 PSMA Fab
Method: as §1

Row | Binder | Anti-PSMA Fab signal in the presence of PSMA
16 | B3 | 0.108
17 | B4 | 0.101
18 | B5 | 0.0654
19 | B6 | 0.0683
20 | B7 | 0.0841
21 | B8 | 0.079
22 | B9 | 0.0786
23 | B10 | 0.0653
24 | B11 | 0.0698
25 | B12 | 0.0741
26 | B13 | 0.0666
27 | B14 | 0.0564
28 | B15 | 0.106
29 | B16 | 0.0656
30 | B17 | 0.0929

molecular target: T2, PSMA Fab (006 PSMA Fab) (biotinylated (site not stated)); test: phage ELISA on captured PSMA Fab, wells pre-incubated with PSMA antigen as competitor
T2 construct: also called Anti-PSMA Fab

Row | Binder | phage binding ELISA signal (Anti-PSMA Fab pre-incubated with PSMA antigen)
31 | B18 | 0.065
32 | EVKWCTPSWMCSGL [Phage-2330] | 0.06
33 | FEHWCTPEWMCLGM [Phage-2331] | 0.0623
34 | VVNWCVPEWMCSGF [Phage-2332] | 0.0772

molecular target: T2, PSMA Fab (006 PSMA Fab); test: phage ELISA, clonal phage on biotinylated PSMA Fab captured on neutravidin plate, anti-M13 HRP detection;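 also: crude clonal phage supernatants added to wells preincubated with PSMA antigen in blocking buffer or with blocking buffer only, giving a competition and a no-competitor control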
Method: as §1

Row | Binder | Phage binding ELISA signal, Anti-PSMA Fab
35 | B18 | 1.45
36 | EVKWCTPSWMCSGL [Phage-2330] | 1.45
37 | FEHWCTPEWMCLGM [Phage-2331] | 1.45
38 | VVNWCVPEWMCSGF [Phage-2332] | 1.45

molecular target: Anti-PSMA Fab (006 PSMA Fab); test: clonal phage ELISA on biotinylated PSMA Fab captured on neutravidin; PSMA antigen as competitor; anti-M13-HRP detection
Method: as §1

Row | Binder | phage binding ELISA signal (Anti-PSMA Fab, wells pre-incubated with PSMA antigen)
39 | B1 | 0.0767
40 | MDNWCTPPWMCHGF [Phage-2299] | 0.0898
41 | WVQWCIPPWMCEPS [Phage-2300] | 0.14
42 | SMKWCTPAWMCERL [Phage-2301] | 0.115
43 | FANWCTPSWMCNFT [Phage-2302] | 0.152
44 | B2 | 0.102
45 | VQNWCIPAWMCEGK [Phage-2304] | 0.0686
46 | EAKWCTPPWMCMSM [Phage-2305] | 0.0593
47 | QNTWCIPPWMCEVF [Phage-2306] | 0.0806
48 | YDRLCIPMWMCSSV [Phage-2307] | 0.0715
49 | EWKWCTPPWMCQYE [Phage-2308] | 0.0874
50 | IEKWCIPLWMCEMQ [Phage-2309] | 0.0726
51 | MEIWCKPAWMCEST [Phage-2310] | 0.0714
52 | PEKWCIPDWMCTVY [Phage-2311] | 0.0815
53 | EFKMCIPQWMCQHQ [Phage-2312] | 0.0622

molecular target: T1, Anti-PSMA Fab (SEQ ID NOs: 19, 20); test: phage binding ELISA; clonal phage on plate-captured biotinylated PSMA Fab, anti-M13 HRP detection
Method: as §1

Row | Binder | Anti-PSMA Fab (SEQ ID NOs: 19, 20) signal
54 | B3 | 1.51
55 | B4 | 1.51
56 | B5 | 1.51
57 | B6 | 1.51
58 | B7 | 1.51
59 | B8 | 1.51
60 | B9 | 1.5
61 | B10 | 1.5
62 | B11 | 1.5
63 | B12 | 1.5
64 | B13 | 1.5
65 | B14 | 1.5
66 | B15 | 1.5
67 | B16 | 1.5
68 | B17 | 1.5
